# In US12692310B2, “ASIC1 channel antagonist antibody” (ShanghaiTech University, priority 2019, dated 2026):
# B1: ASC06-IgG1: ASC06 antibody converted into a full length IgG1 form (antibody, V domains shown)
# VH: QVQLQQSGGGLVQPGGSLRLSCAASGFTFSSYAMSWVRQAPGKGLEWVSAISGSGGSTYYADSVKGRFTISRDNSKNTLYLQMNSLRAEDTAVYYCAKDSFYGYSKGDWGQGTLVTVSS
# VL: QSALTQPASVSGSPGQSITISCTGTSSDVGAYNYVSWYQQQPGKAPKLMIYGVSNRPSGVSNRFSGSKSGNAASLTISGLQAEDEADYYCSSYTSSSTYVFGTGTKLTVLG
# Tests used:
# [1] = tested on: MCAO-induced ischemic stroke model mice; assay: Middle cerebral artery occlusion (MCAO)-induced ischemic stroke model; type: in vivo, mouse; details: 4 μL i.c.v. 3 h after ischemia; 100 nM PcTx1 or 3.0 μg/μL ASC06-IgG1; 24 h after injection
# Description: The Middle Cerebral Artery Occlusion (MCAO) Model. Animal care and the experimental protocols were approved by the Animal Ethics Committee of Shanghai Jiao Tong University School of Medicine, Shanghai, China. A transient ischemic stroke in the left brain hemisphere was established in male mice (C57 BL/6, 20-25 g) using middle cerebral artery occlusion (MCAO) for 1 h before reperfusion. Three hours after ischemia, a total of 4 μL of vehicle solution (PBS) in the absence or presence of neuroprotective agents) 100 nM PcTx1 or 3.0 μg/μL endotoxin-free ASC06-IgG1 ([…])) was administered by an intracerebroventricular (i.c.v.) injection on the contralateral side of the brain hemisphere. An irrelevant endotoxin-free antibody (3.0 μg/μL, […]) was used as isotype control. […] Mice were sacrificed 24 h after the i.c.v. injection. […] The infarct area was calculated by subtracting the normal area stained with TTC in the ischemic hemisphere from that of the nonischemic hemisphere. The infarct volume was calculated by summing infarction areas of all sections and multiplying by slice thickness.
# To determine if the protective effect of antibody ASC06-IgG1 in vitro could be extended to pathologies in vivo, the middle cerebral artery occlusion (MCAO) model was used to study the antibody's neuroprotective effect. […] The infarct volume of the cortex and striatum were calculated 24 hours after the injection. […]
# [2] = molecular target: T1, hASIC1a Y318A (Homo sapiens, UniProt P78348, Y318A); assay: FACS binding to alanine mutant hASIC1a-eYFP on CHO-K1 cells; type: cell-based; details: vs WT hASIC1a
# T1 construct: expressed in transfected cells; host or cells: CHO-K1, transient
# T1 sequence (P78348 1-528 Y318A): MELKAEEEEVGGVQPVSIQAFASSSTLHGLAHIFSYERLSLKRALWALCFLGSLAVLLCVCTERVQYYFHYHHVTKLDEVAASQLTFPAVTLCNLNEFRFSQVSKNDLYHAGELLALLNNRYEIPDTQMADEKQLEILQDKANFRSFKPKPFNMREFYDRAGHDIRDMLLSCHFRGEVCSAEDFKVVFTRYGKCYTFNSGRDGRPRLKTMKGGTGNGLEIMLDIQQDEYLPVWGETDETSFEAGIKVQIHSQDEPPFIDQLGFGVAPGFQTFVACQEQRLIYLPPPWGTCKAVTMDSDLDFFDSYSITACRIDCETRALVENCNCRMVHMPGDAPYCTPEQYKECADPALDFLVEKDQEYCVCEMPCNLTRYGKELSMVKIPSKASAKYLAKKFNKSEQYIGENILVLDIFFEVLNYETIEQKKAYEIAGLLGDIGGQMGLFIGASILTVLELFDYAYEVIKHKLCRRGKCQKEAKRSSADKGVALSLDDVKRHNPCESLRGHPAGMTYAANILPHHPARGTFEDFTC
# Description: (§1) To confirm the role of these amino acids, alanine mutagenesis was performed and four amino acids are very important for antibody binding were identified. Plasmid encoding single amino acid mutation of hASIC1a-eYFP was constructed and transient transfected into CHO-K1 cells. FACS binding assay was then performed to test whether the ASC06-IgG1 still binds to cell surface expressing mutated hASIC1a.
# [3] = molecular target: T2, hASIC1a Y360A (Homo sapiens, UniProt P78348, Y360A); assay: as above; type: cell-based; details: vs WT hASIC1a
# T2 construct: expressed in transfected cells; host or cells: CHO-K1, transient
# T2 sequence (P78348 1-528 Y360A): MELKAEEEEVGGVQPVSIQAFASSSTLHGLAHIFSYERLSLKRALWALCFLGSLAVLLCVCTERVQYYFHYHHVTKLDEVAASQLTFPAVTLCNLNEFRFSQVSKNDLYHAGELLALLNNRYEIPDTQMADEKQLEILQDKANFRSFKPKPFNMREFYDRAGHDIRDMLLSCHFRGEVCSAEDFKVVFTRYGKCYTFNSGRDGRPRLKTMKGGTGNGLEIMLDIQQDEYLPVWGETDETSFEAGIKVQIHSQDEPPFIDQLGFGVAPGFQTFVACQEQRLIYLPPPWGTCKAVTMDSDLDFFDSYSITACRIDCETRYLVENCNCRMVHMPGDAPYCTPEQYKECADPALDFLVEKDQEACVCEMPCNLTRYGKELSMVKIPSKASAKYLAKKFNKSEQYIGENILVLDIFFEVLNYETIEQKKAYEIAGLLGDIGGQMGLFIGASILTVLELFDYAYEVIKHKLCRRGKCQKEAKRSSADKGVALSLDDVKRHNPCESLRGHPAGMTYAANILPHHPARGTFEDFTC
# Description: as §1
# [4] = molecular target: T3, hASIC1a N322A (Homo sapiens, UniProt P78348, N322A); assay: as above; type: cell-based; details: vs WT hASIC1a
# T3 construct: expressed in transfected cells; host or cells: CHO-K1, transient
# T3 sequence (P78348 1-528 N322A): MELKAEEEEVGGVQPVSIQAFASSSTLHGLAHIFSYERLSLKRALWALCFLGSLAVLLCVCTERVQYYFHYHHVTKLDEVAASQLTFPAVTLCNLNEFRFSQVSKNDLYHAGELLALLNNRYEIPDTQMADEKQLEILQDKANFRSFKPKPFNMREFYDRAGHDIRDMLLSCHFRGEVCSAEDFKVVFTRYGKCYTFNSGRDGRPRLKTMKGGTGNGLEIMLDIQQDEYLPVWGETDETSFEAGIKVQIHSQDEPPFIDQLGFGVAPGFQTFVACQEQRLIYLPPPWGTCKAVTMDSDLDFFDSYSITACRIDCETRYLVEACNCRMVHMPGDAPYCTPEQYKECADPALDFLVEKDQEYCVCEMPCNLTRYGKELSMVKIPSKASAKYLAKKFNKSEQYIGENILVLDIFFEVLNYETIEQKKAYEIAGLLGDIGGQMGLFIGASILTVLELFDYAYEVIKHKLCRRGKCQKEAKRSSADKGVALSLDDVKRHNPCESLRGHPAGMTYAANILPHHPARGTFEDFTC
# Description: as §1
# [5] = pH stability, SEC-HPLC analysis; type: physicochemical; parameters: dose or concentration left out as unconfirmed; details: pH 7.4 to 5.0, 6 h at 37° C.
# Description: The tolerance of ASC06-IgG1 to acidic conditions was tested. A concentrated ASC06-IgG1 solution ([…]) was incubated at different pH values (from 7.4 to 5.0) for 6 h at 37° C. and subjected to SEC-HPLC analysis.
# [6] = tested on: hASIC1a F252A; assay: FACS binding to alanine mutant hASIC1a-eYFP on CHO-K1 cells; type: cell-based, human; details: vs WT hASIC1a
# Description: as §1
molecule,measurement,setting,value
B1,infarct volume (compared with the contralateral brain region),[1],about 23%
same,binding to hASIC1a Y318A mutation,[2],abolished
same,binding to hASIC1a Y360A mutation,[3],decrease
same,binding to hASIC1a N322A mutation,[4],decrease
same,degradation or aggregation by SEC-HPLC,[5],no significant degradation or aggregation
same,binding to hASIC1a F252A mutation,[6],so does
